Source: patent US7125847
Values joined by “and” are separate entries in the source; they are usually repeats but may differ in a detail not shown here. Equal entries are not always repeated. Where two headings read alike, the source gives them in different places. Where no end group is shown, it is not given here.

What was measured:
[1] = target: stretch-activated channels (SACs) of activated adult rat astrocytes (rat)
[2] = target: stretch-activated channels (SACs) of activated adult rat astrocytes (rat); test: cell-based or functional assay
[3] = target: stretch-activated channels (SACs) of activated adult rat astrocytes (rat); remark: listed apart in the source

B1: GsMTx-4 purified from Grammostola spatulata venom (peptide)
peptide: GCLEFWWKCNPNDDKCCRPKLKCSKLFKLCNFSSG-NH2
modifications: disulfide (positions not given here); not fully specified (bridges); also: 3 disulfides (ICK motif), pairing not given here
Q: B1 was tested. Which Kd [1] did it give?
A: The Kd was 631 nM and 415 nM.

Q: What about the koff [1] of the same binder?
A: The koff was 0.21 s⁻¹.

Q: What about the kon [1] of the same binder?
A: The kon was 330000 M⁻¹ s⁻¹.

Q: And the average SAC current after GsMTx-4 washout [2]?
A: The average SAC current after GsMTx-4 washout was 2.28 pA.

Q: And the average SAC current during GsMTx-4 application [2]?
A: Its average SAC current during GsMTx-4 application is 0.17 pA.

Q: What about the mean SAC current before GsMTx-4 application [2] of the same binder?
A: The mean SAC current before GsMTx-4 application was 2.04 pA.

Q: And the ratio of blocked to unblocked current I/I0 [2]?
A: The ratio of blocked to unblocked current I/I0 was 0.083.

Q: What about the time constant of recovery of SAC current on washout [2] of the same binder?
A: The time constant of recovery of SAC current on washout was 4.7 s.

Q: What about the kon [3] of the same binder?
A: The kon was 340000 M⁻¹ s⁻¹.
